{
  "source": "paper PMC8631008",
  "about": "(FEBS letters, 2021)",
  "target": "T1, Pleiotrophin, wild type (mature, residues 1 to 136) (human, UniProt P21246 33-168)",
  "T1 sequence (looked up)": "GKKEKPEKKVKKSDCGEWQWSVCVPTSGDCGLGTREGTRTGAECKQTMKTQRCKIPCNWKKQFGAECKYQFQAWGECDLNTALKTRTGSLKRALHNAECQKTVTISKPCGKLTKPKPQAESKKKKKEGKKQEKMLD",
  "experiment": "NMR titration",
  "data": [
    {"binder": "GGGEDGDTDDDGDDDDDDRGSDGLSIHK", "note": "[PTPRZ peptide (residues G1414 to K1441 of receptor type protein tyrosine phosphatase ζ)]", "values": [
      {"measurement": "Kd", "result": "~30", "unit": "µM"}
    ]}
  ]
}
